The source of these data is paper PMC6953117.

The target in the test is giantin-WT-GFP (UniProt Q14789). Put plainly: atomic force microscopy (particle volumes); giantin-GFP isolated with GFP-Trap Magnetic Agarose from DMSO- or BFA-treated HeLa cells (lysate with NEM), treated with 2% β-mercaptoethanol, deposited on mica, tapping mode in air; volumes by the spherical cap model, Gaussian fit of the …. The conditions noted are these: remark: other sources report otherwise.

For giantin-WT-GFP, Q14789 1-3259, the percent of particles in the dimer peak (BFA-treated cells) worked out at 10%; the percent of particles in the dimer peak (DMSO-treated cells) was found to be 27%; the stoichiometry N (in general, a count of units in the complex or per binding partner) was 2.
